Experimental data published in patent US20120237528A1 (Janssen / Centocor, published 2012).
Blank lines part the entries; values can stand above or below the binder they belong to.

How the values were obtained:
[1] = biological target: T1, recombinant human FcγIIIa receptor (human, UniProt P08637 17-208, limits assumed); assay: Fc receptor binding assay (method of a co-pending application or Biacore)
T1 construct: also called FcγRIIIa

[2] = biological target: T1, recombinant human FcγIIIa receptor; assay: cell-based or functional assay
[3] = biological target: T1, recombinant human FcγIIIa receptor; assay: Fc receptor binding assay

T1 sequence (P08637 17-208 limits assumed): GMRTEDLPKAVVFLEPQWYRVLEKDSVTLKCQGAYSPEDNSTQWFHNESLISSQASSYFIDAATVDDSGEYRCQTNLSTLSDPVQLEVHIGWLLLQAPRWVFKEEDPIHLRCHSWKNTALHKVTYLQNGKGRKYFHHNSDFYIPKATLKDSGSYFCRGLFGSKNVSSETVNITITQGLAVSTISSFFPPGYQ

Kd [1]: 5 nM
EC50 (read off the curve) [2]: ~5 ng/mL
fold tighter binding than the unmodified IgG1 M1593 [3]: 40 fold
B1: M1593-DE (hIgG1 with S239D/I332E) (antibody)
heavy: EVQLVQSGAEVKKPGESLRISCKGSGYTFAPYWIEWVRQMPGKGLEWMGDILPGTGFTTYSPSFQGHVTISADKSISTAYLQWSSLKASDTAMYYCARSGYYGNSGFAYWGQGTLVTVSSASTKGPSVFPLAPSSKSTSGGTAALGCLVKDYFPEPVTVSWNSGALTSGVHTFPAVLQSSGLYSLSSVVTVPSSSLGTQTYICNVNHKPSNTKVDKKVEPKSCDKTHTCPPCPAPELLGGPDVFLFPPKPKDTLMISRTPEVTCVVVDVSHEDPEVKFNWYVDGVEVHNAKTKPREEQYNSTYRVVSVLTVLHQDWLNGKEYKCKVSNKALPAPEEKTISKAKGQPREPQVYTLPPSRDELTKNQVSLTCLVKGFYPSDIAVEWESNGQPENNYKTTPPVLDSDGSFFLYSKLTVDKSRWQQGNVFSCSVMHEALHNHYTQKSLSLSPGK
light: DIVMTQTPLSLPVTPGEPASISCKSSQSLLSSGNQKNYLTWYLQKPGQSPQLLIYWASTRESGVPDRFSGSGSGTDFTLKISRVEAEDVGVYYCQNDYTYPLTFGQGTKLEIKRTVAAPSVFIFPPSDEQLKSGTASVVCLLNNFYPREAKVQWKVDNALQSGNSQESVTEQDSKDSTYSLSSTLTLSKADYEKHKVYACEVTHQGLSSPVTKSFNRGEC
notes: copies: 2 + 2

Kd [1]: 12 nM
EC50 (read off the curve) [2]: ~6 ng/mL
fold tighter binding than the unmodified IgG1 M1593 [3]: 18 fold
B2: M1593-LF (hIgG1 produced in host subline producing reduced fucosylation in glycans) (antibody)
heavy: not shown
light: B1 light
modifications: glycan with low fucose content (less than 10% fucosylated)
notes: same chains as M1593 (IgG1/Kappa), made in a low-fucose CHO subline; copies: 2 + 2
